PMC7875338 (ACS synthetic biology, 2021)

Target: beta-galactosidase (β-gal), negative control expressed in HEK293T cells (Escherichia coli K12 lacZ, assumed, UniProt P00722 = β-galactosidase)
Assay: immunostaining of cells or tissue

beta-galactosidase (β-gal), negative control expressed in HEK293T cells, sequence (P00722 whole entry): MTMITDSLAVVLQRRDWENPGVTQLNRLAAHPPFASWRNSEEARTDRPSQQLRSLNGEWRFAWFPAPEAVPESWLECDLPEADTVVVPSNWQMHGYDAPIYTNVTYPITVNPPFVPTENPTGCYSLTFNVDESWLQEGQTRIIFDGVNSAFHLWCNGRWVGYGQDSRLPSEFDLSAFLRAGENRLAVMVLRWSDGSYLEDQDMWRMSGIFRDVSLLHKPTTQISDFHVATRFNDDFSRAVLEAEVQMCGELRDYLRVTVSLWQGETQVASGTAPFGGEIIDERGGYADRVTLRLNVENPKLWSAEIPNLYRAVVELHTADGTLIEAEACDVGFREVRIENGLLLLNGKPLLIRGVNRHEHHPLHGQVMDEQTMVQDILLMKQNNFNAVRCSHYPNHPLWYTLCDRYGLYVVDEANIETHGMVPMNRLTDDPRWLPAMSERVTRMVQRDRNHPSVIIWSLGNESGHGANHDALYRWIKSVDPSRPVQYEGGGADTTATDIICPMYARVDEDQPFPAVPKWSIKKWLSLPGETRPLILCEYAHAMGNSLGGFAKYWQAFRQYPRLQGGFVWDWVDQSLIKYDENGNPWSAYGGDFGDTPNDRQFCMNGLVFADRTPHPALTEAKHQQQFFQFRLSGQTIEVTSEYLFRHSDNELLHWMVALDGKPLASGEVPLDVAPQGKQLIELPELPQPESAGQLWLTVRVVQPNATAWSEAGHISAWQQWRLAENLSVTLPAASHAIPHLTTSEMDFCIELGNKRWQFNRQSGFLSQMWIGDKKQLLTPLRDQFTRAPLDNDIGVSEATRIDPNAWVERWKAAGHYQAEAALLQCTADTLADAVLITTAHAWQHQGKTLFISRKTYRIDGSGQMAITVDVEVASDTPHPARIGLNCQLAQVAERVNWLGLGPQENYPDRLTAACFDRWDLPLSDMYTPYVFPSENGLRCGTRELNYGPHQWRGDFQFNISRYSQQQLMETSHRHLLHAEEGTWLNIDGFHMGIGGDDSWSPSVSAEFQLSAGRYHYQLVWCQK

| Binder | binding result |
| --- | --- |
| sdAb WuN1-APEX2 fusion protein (VHH) VHH: QVKLQQSGGGLVQAGGSLRLSCAPSGRTFSVNAMGWYRQAPGKQREPVALISTGGSTNYADSVKGRFTITRDNVKNTVYLQMNTLKPEDTAVYYCYTERWKPRGIERDWGQGTQVTVSS | no binding (tested: 100 nM) |
| sdAb WuN3-APEX2 fusion protein (VHH) VHH: KVKLQQSGGGLVQTGGSLRLSCAPSGRTFSVNAMGWYRQAPGKQREPVALISTGGSTNYADSVKGRFTISRDNVKNTVYLQMNTLKPEDTAVYYCYTERWKPRGIERDWGQGTQVTVSS | no binding (tested: 100 nM) |
